Assay results as given in US20050182242A1, “Global analysis of protein activities using proteome chips” (priority 2001, published 2005).

B1: ARP10: yeast GST-HisX6 fusion protein on proteome chip (protein, UniProt Q04549 1-284, looked up)
Actin-like protein ARP10: MSNTIVIVYLGANRIEIGRSADACPQEIIAWKTGSINEKNREELKKIFEHYFQICNILGNREVQVLILEDIFISVVEKRIICSILFKEFDCAHVSFVPRAIVHCLSCNTRNAIVIDIGTNYTTCVPIFDLRPLQQFIKYSKRGKRQVESRIPLPGSLYMPIFFDEEYNSKNCEVDETPVINLVKNIVESLPIDLRRPLRENIIIVNIEEAYETVIRNLFKLKMDTSKIQFPKNYWQAGSACAKILLHYKGSNIVGIERDEFYNNPHIAPDWFDYYFRTGVKRLQ
modifications: GST-HisX6 tag
notes: yeast GST-HisX6 fusion protein on proteome chip
B2: FBP26: yeast GST-HisX6 fusion protein on proteome chip (protein, UniProt P32604 1-452, looked up)
Fructose-2,6-bisphosphatase: MGYSTISNDNDIKVCVIMVGLPARGKSFISQKIIRYLSWLSIKAKCFNVGNYRRDVSGNVPMDAEFFNFENTDNFKLRELAAQNAIKDIVNFFTKEDGSVAVFDATNSTRKRRKWLKDICEKNNIQPMFLESWSNDHELIINNAKDIGSTSPDYENSEPHVAEADFLERIRQYERFYEPLDPQKDKDMTFIKLVNIIEEVVINKIRTYLESRIVFYVMNIRPKPKYIWLSRHGESIYNVEKKIGGDSSLSERGFQYAKKLEQLVKESAGEINLTVWTSTLKRTQQTANYLPYKKLQWKALDELDAGVCDGMTYEEIEKEYPEDFKARDNDKYEYRYRGGESYRDVVIRLEPVIMELERQENVLIITHQAVLRCIYAYFMNVPQEESPWMSIPLHTLIKLEPRAYGTKVTKIKANIPAVSTYKEKGTSQVGELSQSSTKLHQLLNDSPLEDKF
modifications: GST-His6 tag
notes: as for B1
B3: TAT2: yeast GST-HisX6 fusion protein on proteome chip (protein, UniProt P38967 1-592, looked up)
Tryptophan permease: MTEDFISSVKRSNEELKERKSNFGFVEYKSKQLTSSSSHNSNSSHHDDDNQHGKRNIFQRCVDSFKSPLDGSFDTSNLKRTLKPRHLIMIAIGGSIGTGLFVGSGKAIAEGGPLGVVIGWAIAGSQIIGTIHGLGEITVRFPVVGAFANYGTRFLDPSISFVVSTIYVLQWFFVLPLEIIAAAMTVQYWNSSIDPVIWVAIFYAVIVSINLFGVRGFGEAEFAFSTIKAITVCGFIILCVVLICGGGPDHEFIGAKYWHDPGCLANGFPGVLSVLVVASYSLGGIEMTCLASGETDPKGLPSAIKQVFWRILFFFLISLTLVGFLVPYTNQNLLGGSSVDNSPFVIAIKLHHIKALPSIVNAVILISVLSVGNSCIFASSRTLCSMAHQGLIPWWFGYIDRAGRPLVGIMANSLFGLLAFLVKSGSMSEVFNWLMAIAGLATCIVWLSINLSHIRFRLAMKAQGKSLDELEFVSAVGIWGSAYSALINCLILIAQFYCSLWPIGGWTSGKERAKIFFQNYLCALIMLFIFIVHKIYYKCQTGKWWGVKALKDIDLETDRKDIDIEIVKQEIAEKKMYLDSRPWYVRQFHFWC
modifications: GST-His6 tag
notes: as for B1
B4: VTC4: yeast GST-HisX6 fusion protein on proteome chip (protein, UniProt P47075 1-721, looked up)
Vacuolar transporter …: MKFGEHLSKSLIRQYSYYYISYDDLKTELEDNLSKNNGQWTQELETDFLESLEIELDKVYTFCKVKHSEVFRRVKEVQEQVQHTVRLLDSNNPPTQLDFEILEEELSDIIADVHDLAKFSRLNYTGFQKIIKKHDKKTGFILKPVFQVRLDSKPFFKENYDELVVKISQLYDIARTSGRPIKGDSSAGGKQQNFVRQTTKYWVHPDNITELKLIILKHLPVLVFNTNKEFEREDSAITSIYFDNENLDLYYGRLRKDEGAEAHRLRWYGGMSTDTIFVERKTHREDWTGEKSVKARFALKERHVNDFLKGKYTVDQVFAKMRKEGKKPMNEIENLEALASEIQYVMLKKKLRPVVRSFYNRTAFQLPGDARVRISLDTELTMVREDNFDGVDRTHKNWRRTDIGVDWPFKQLDDKDICRFPYAVLEVKLQTQLGQEPPEWVRELVGSHLVEPVPKFSKFIHGVATLLNDKVDSIPFWLPQMDVDIRKPPLPTNIEITRPGRSDNEDNDFDEDDEDDAALVAAMTNAPGNSLDIEESVGYGATSAPTSNTNHVVESANAAYYQRKIRNAENPISKKYYEIVAFFDHYFNGDQISKIPKGTTFDTQIRAPPGKTICVPVRVEPKVYFATERTYLSWLSISILLGGVSTTLLTYGSPTAMIGSIGFFITSLAVLIRTVMVYAKRVVNIRLKRAVDYEDKIGPGMVSVFLILSILFSFFCNLVAK
modifications: GST-HisX6 tag
notes: as for B1
B5: FUR1: yeast GST-HisX6 fusion protein on proteome chip (protein, UniProt P18562 1-216, looked up)
Uracil …: MSSEPFKNVYLLPQTNQLLGLYTIIRNKNTTRPDFIFYSDRIIRLLVEEGLNHLPVQKQIVETDTNENFEGVSFMGKICGVSIVRAGESMEQGLRDCCRSVRIGKILIQRDEETALPKLFYEKLPEDISERYVFLLDPMLATGGSAIMATEVLIKRGVKPERIYFLNLICSKEGIEKYHAAFPEVRIVTGALDRGLDENKYLVPGLGDFGDRYYCV
modifications: GST-His6 fusion tag
notes: as for B1
B6: PEX4: yeast GST-HisX6 fusion protein on proteome chip (protein, UniProt P29340 1-183, looked up)
Ubiquitin-conjugating enzyme …: MPNFWILENRRSYTSDTCMSRIVKEYKVILKTLASDDPIANPYRGIIESLNPIDETDLSKWEAIISGPSDTPYENHQFRILIEVPSSYPMNPPKISFMQNNILHCNVKSATGEICLNILKPEEWTPVWDLLHCVHAVWRLLREPVCDSPLDVDIGNIIRCGDMSAYQGIVKYFLAERERINNH
modifications: GST-His6 tag
notes: as for B1
B7: APS2: yeast GST-HisX6 fusion protein on proteome chip (protein, UniProt Q00381 1-147, looked up)
AP-2 complex subunit sigma: MAVQFILCFNKQGVVRLVRWFDVHSSDPQRSQDAIAQIYRLISSRDHKHQSNFVEFSDSTKLIYRRYAGLYFVMGVDLLDDEPIYLCHIHLFVEVLDAFFGNVCELDIVFNFYKVYMIMDEMFIGGEIQEISKDMLLERLSILDRLD
modifications: GST-HisX6 tag
notes: as for B1
B8: FRM2: yeast GST-HisX6 fusion protein on proteome chip (protein, UniProt P37261 1-193, looked up)
nitroreductase FRM2: MSPTGNYLNAITNRRTIYNLKPELPQGVGLDDVKRTVHVILKNTPTAFNSQVNRAVIIVGDTHKRIWDAVASAMPTAEAKKRPESCRDEAYGSVIFFTDEGPTEKLQRDFPALAAAFPTCAAHTTGAVQIQSWTALELLGLGANLQHYNDYVKSALPQDVPIAWTVQSQLVFGVPTALPEEKTFINNVINVYH
modifications: GST-His6 fusion tag
notes: as for B1
B9: MPS1: yeast GST-HisX6 fusion protein on proteome chip (protein, UniProt P54199 1-764, looked up)
Serine/threonine-protein …: MSTNSFHDYVDLKSRTNTRQFSDDEEFTTPPKLSNFGSALLSHTEKTSASEILSSHNNDKIANRLEEMDRSSSRSHPPPSMGNLTSGHTSTSSHSTLFGRYLRNNHQTSMTTMNTSDIEINVGNSLDKSFERIRNLRQNMKEDITAKYAERRSKRFLISNRTTKLGPAKRAMTLTNIFDEDVPNSPNQPINARETVELPLEDSHQTNFKETKRNTDYDSIDFGDLNPIQYIKKHNLPTSDLPLISQIYFDKQREENRQAALRKHSSRELLYKSRSSSSSLSSNNLLANKDNSITSNNGSQPRRKVSTGSSSSKSSIEIRRALKENIDTSNNSNFNSPIHKIYKGISRNKDSDSEKREVLRNISINANHADNLLQQENKRLKRSLDDAITNENINSKNLEVFYHRPAPKPPVTKKVEIVEPAKSASLSNNRNIITVNDSQYEKIELLGRGGSSRVYKVKGSGNRVYALKRVSFDAFDDSSIDGFKGEIELLEKLKDQKRVIQLLDYEMGDGLLYLIMECGDHDLSQILNQRSGMPLDFNFVRFYTKEMLLCIKVVHDAGIVHSDLKPANFVLVKGILKIIDFGIANAVPEHTVNIYRETQIGTPNYMAPEALVAMNYTQNSENQHEGNKWKVGRPSDMWSCGCIIYQMIYGKPPYGSFQGQNRLLAIMNPDVKIPFPEHTSNNEKIPKSAIELMKACLYRNPDKRWTVDKVLSSTFLQPFMISGSIMEDLIRNAVRYGSEKPHISQDDLNDVVDTVLRKFADYKI
modifications: GST-HisX6 tag
notes: as for B1

Legend:
Settings in all cases: liposome binding signal on yeast proteome chip, Cy3-streptavidin detection
[1] = tested on: phosphatidylcholine (PC) liposomes; test: Yeast proteome chip probed with PC liposomes
Outline: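 Binding of arrayed yeast proteins to sonicated PC liposomes, with or without 5% (w/w) phosphoinositide, is scored by streptavidin fluorescence on the biotinylated lipid tracer.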

PI(3,4,5)P3 liposomes = test: Yeast proteome chip probed with PI(3,4,5)P3 liposomes
PI(3,4)P2 liposomes = test: Yeast proteome chip probed with PI(3,4)P2 liposomes
PI(3)P liposomes = test: Yeast proteome chip probed with PI(3)P liposomes
PI(4,5)P2 liposomes = test: Yeast proteome chip probed with PI(4,5)P2 liposomes
PI(4)P liposomes = test: Yeast proteome chip probed with PI(4)P liposomes

Molecule	PC [1]	PI(3, 4, 5)P3 (PI(3,4,5)P3 liposomes)	PI(3, 4)P2 (PI(3,4)P2 liposomes)	PI(3)P (PI(3)P liposomes)	PI(4, 5)P2 (PI(4,5)P2 liposomes)	PI(4)P (PI(4)P liposomes)
B1	119.74	30.15	29.20	51.00	32.01	98.64
B2	107.41	25.31	48.51	5.75	47.90	62.06
B3	83.93	68.29	62.48	60.50	85.79	51.39
B4	66.03	25.31	30.45	8.50	26.78	99.07
B5	95.67	72.22	210.19	112.25	111.70	148.94
B6	69.85	21.49	8.63	1.75	28.31	57.48
B7	58.70	15.97	56.51	39.50	103.65	159.82
B8	63.39	16.88	59.34	3.50	75.34	12.63
B9	4374.59	1864.12	4216.40	310.00	1084.79	6148.60
